These are literature values, as cited in paper PMC7395068, “The evolution of strategies to minimise the risk of human drug-induced liver injury (DILI) in drug discovery and development” (Archives of Toxicology, 2020).

Sequences and labels used below:
B1: imiglucerase (protein, UniProt P04062 40-536, looked up, variant R495H)
Lysosomal acid …: ARPCIPKSFGYSSVVCVCNATYCDSFDPPTFPALGTFSRYESTRSGRRMELSMGPIQANHTGTGLLLTLQPEQKFQKVKGFGGAMTDAAALNILALSPPAQNLLLKSYFSEEGIGYNIIRVPMASCDFSIRTYTYADTPDDFQLHNFSLPEEDTKLKIPLIHRALQLAQRPVSLLASPWTSPTWLKTNGAVNGKGSLKGQPGDIYHQTWARYFVKFLDAYAEHKLQFWAVTAENEPSAGLLSGYPFQCLGFTPEHQRDFIARDLGPTLANSTHHNVRLLMLDDQRLLLPHWAKVVLTDPEAAKYVHGIAVHWYLDFLAPAKATLGETHRLFPNTMLFASEACVGSKFWEQSVRLGSWDRGMQYSHSIITNLLYHVVGWTDWNLALNPEGGPNWVRNFVDSPIIVDITKDTFYKQPMFYHLGHFSKFIPEGSQRVGLVASQKNDLDAVALMHPDGSAVVVVLNRSSKDVPLTIKDPAVGFLETISPGYSIHTYLWHRQ
B2: pegaspargase (protein, UniProt P00805 23-348, looked up)
L-asparaginase 2: LPNITILATGGTIAGGGDSATKSNYTVGKVGVENLVNAVPQLKDIANVKGEQVVNIGSQDMNDNVWLTLAKKINTDCDKTDGFVITHGTDTMEETAYFLDLTVKCDKPVVMVGAMRPSTSMSADGPFNLYNAVVTAADKASANRGVLVVMNDTVLDGRDVTKTNTTDVATFKSVNYGPLGYIHNGKIDYQRTPARKHTSDTPFDVSKLNELPKVGIVYNYANASDLPAKALVDAGYDGIVSAGVGNGNLYKSVFDTLATAAKTGTAVVRSSRVPTGATTQDAEVDDAKYGFVASGTLNPQKARVLLQLALTQTKDPQQIQQIFNQY
modifications: PEG conjugate
B3: idursulfase (protein, UniProt P22304 34-455; P22304 456-550, looked up)
Iduronate 2-sulfatase 42 kDa …: TDALNVLLIIVDDLRPSLGCYGDKLVRSPNIDQLASHSLLFQNAFAQQAVCAPSRVSFLTGRRPDTTRLYDFNSYWRVHAGNFSTIPQYFKENGYVTMSVGKVFHPGISSNHTDDSPYSWSFPPYHPSSEKYENTKTCRGPDGELHANLLCPVDVLDVPEGTLPDKQSTEQAIQLLEKMKTSASPFFLAVGYHKPHIPFRYPKEFQKLYPLENITLAPDPEVPDGLPPVAYNPWMDIRQREDVQALNISVPYGPIPVDFQRKIRQSYFASVSYLDTQVGRLLSALDDLQLANSTIIAFTSDHGWALGEHGEWAKYSNFDVATHVPLIFYVPGRTASLPEAGEKLFPYLDPFDSASQLMEPGRQSMDLVELVSLFPTLAGLAGLQVPPRCPVPSFHVELCREGKNLLKHFRFRDLEEDPYLPG
Iduronate 2-sulfatase 14 kDa …: NPRELIAYSQYPRPSDIPQWNSDKPSLKDIKIMGYSIRTIDYRYTVWVGFNPDEFLANFSDIHAGELYFVDSDPLQDHNMYNDSQGGDLFQLLMP
B4: tenecteplase (protein, UniProt P00750 36-562, looked up, variant T103N N117Q K296A H297A R298A R299A)
Tissue-type plasminogen …: SYQVICRDEKTQMIYQQHQSWLRPVLRSNRVEYCWCNSGRAQCHSVPVKSCSEPRCFNGGTCQQALYFSDFVCQCPEGFAGKCCEIDTRATCYEDQGISYRGNWSTAESGAECTNWQSSALAQKPYSGRRPDAIRLGLGNHNYCRNPDRDSKPWCYVFKAGKYSSEFCSTPACSEGNSDCYFGNGSAYRGTHSLTESGASCLPWNSMILIGKVYTAQNPSAQALGLGKHNYCRNPDGDAKPWCHVLKNRRLTWEYCDVPSCSTCGLRQYSQPQFRIKGGLFADIASHPWQAAIFAAAAASPGERFLCGGILISSCWILSAAHCFQERFPPHHLTVILGRTYRVVPGEEEQKFEVEKYIVHKEFDDDTYDNDIALLQLKSDSSRCAQESSVVRTVCLPPADLQLPDWTECELSGYGKHEALSPFYSERLKEAHVRLYPSSRCTSQHLLNRTVTDNMLCAGDTRSGGPQANLHDACQGDSGGPLVCLNDGRMTLVGIISWGLGCGQKDVPGVYTKVTNYLDWIRDNMRP
B5: laronidase (protein, UniProt P35475 28-653, looked up)
Alpha-L-iduronidase: APHLVHVDAARALWPLRRFWRSTGFCPPLPHSQADQYVLSWDQQLNLAYVGAVPHRGIKQVRTHWLLELVTTRGSTGRGLSYNFTHLDGYLDLLRENQLLPGFELMGSASGHFTDFEDKQQVFEWKDLVSSLARRYIGRYGLAHVSKWNFETWNEPDHHDFDNVSMTMQGFLNYYDACSEGLRAASPALRLGGPGDSFHTPPRSPLSWGLLRHCHDGTNFFTGEAGVRLDYISLHRKGARSSISILEQEKVVAQQIRQLFPKFADTPIYNDEADPLVGWSLPQPWRADVTYAAMVVKVIAQHQNLLLANTTSAFPYALLSNDNAFLSYHPHPFAQRTLTARFQVNNTRPPHVQLLRKPVLTAMGLLALLDEEQLWAEVSQAGTVLDSNHTVGVLASAHRPQGPADAWRAAVLIYASDDTRAHPNRSVAVTLRLRGVPPGPGLVYVTRYLDNGLCSPDGEWRRLGRPVFPTAEQFRRMRAAEDPVAAAPRPLPAGGRLTLRPALRLPSLLLVHVCARPEKPPGQVTRLRALPLTQGQLVLVWSDEHVGSKCLWTYEIQFSQDGKAYTPVSRKPSTFNLFVFSPDTGAVSGSYRVRALDYWARPGPFSDPVPYLEVPVPRGPPSPGNP
B6: interferon gamma-1b (protein, UniProt P01579 24-161, looked up)
Interferon gamma: QDPYVKEAENLKKYFNAGHSDVADNGTLFLGILKNWKEESDRKIMQSQIVSFYFKLFKNFKDDQSIQKSVETIKEDMNVKFFNSNKKKRDDFEKLTNYSVTDLNVQRKAIHELIQVMAELSPAAKTGKRKRSQMLFRG
B7: pegfilgrastim (protein, UniProt P09919 31-207, looked up)
Granulocyte …: TPLGPASSLPQSFLLKCLEQVRKIQGDGAALQEKLVSECATYKLCHPEELVLLGHSLGIPWAPLSSCPSQALQLAGCLSQLHSGLFLYQGLLQALEGISPELGPTLDTLQLDVADFATTIWQQMEELGMAPALQPTQGAMPAFASAFQRRAGGVLVASHLQSFLEVSYRVLRHLAQP
modifications: N-terminal Met; PEG
B8: rasburicase (protein, UniProt Q00511 2-302, looked up)
Uricase: SAVKAARYGKDNVRVYKVHKDEKTGVQTVYEMTVCVLLEGEIETSYTKADNSVIVATDSIKNTIYITAKQNPVTPPELFGSILGTHFIEKYNHIHAAHVNIVCHRWTRMDIDGKPHPHSFIRDSEEKRNVQVDVVEGKGIDIKSSLSGLTVLKSTNSQFWGFLRDEYTTLKETWDRILSTDVDATWQWKNFSGLQEVRSHVPKFDATWATAREVTLKTFAEDNSASVQATMYKMAEQILARQQLIETVEYSLPNKHYFEIDLSWHKGLQNTGKNAEVFAPQSDPNGLIKCTVGRSSLKSKL
B9: pegademase bovine (protein, UniProt P56658 2-363, looked up)
Adenosine deaminase: AQTPAFNKPKVELHVHLDGAIKPETILYYGRKRGIALPADTPEELQNIIGMDKPLSLPEFLAKFDYYMPAIAGCREAVKRIAYEFVEMKAKDGVVYVEVRYSPHLLANSKVEPIPWNQAEGDLTPDEVVSLVNQGLQEGERDFGVKVRSILCCMRHQPSWSSEVVELCKKYREQTVVAIDLAGDETIEGSSLFPGHVKAYAEAVKSGVHRTVHAGEVGSANVVKEAVDTLKTERLGHGYHTLEDATLYNRLRQENMHFEVCPWSSYLTGAWKPDTEHPVVRFKNDQVNYSLNTDDPLIFKSTLDTDYQMTKNEMGFTEEEFKRLNINAAKSSFLPEDEKKELLDLLYKAYGMPSPASAEQCL
modifications: PEG conjugate
B10: pegvisomant (protein, UniProt P01241 27-217, looked up, variant H18D H21N Q22N F25S K41I Y42H L45W Q46W G120K R167N D171S E174S I179T)
Somatotropin: FPTIPLSRLFDNAMLRADRLNNLASDTYQEFEEAYIPKEQIHSFWWNPQTSLCFSESIPTPSNREETQQKSNLELLRISLLLIQSWLEPVQFLRSVFANSLVYGASDSNVYDLLKDLEEKIQTLMGRLEDGSPRTGQIFKQTYSKFDTNSHNDDALLKNYGLLYCFNKDMSKVSTFLRTVQCRSVEGSCGF
modifications: PEGylated

For the data set the following is noted: in vivo.
Turning to B1, the “DILI +VE (5-8), DILI -VE (-4)” value is recorded as “-VE” and the DILI severity category entry was “vNo-DILI-Concern”.

As for B2, the “DILI +VE (5-8), DILI -VE (-4)” value is recorded as “+VE” and the DILI severity category result is reported as “vLess-DILI-Concern”.

For B3, the “DILI +VE (5-8), DILI -VE (-4)” value was “-VE” and the DILI severity category result is on record as “vNo-DILI-Concern”.

For the molecule B4, the “DILI +VE (5-8), DILI -VE (-4)” value is listed as “-VE” and the DILI severity category result is “vNo-DILI-Concern”.

Turning to B5, the “DILI +VE (5-8), DILI -VE (-4)” value is listed as “-VE” and the DILI severity category result is recorded as “Ambiguous DILI-concern”.

On to B6, for which the “DILI +VE (5-8), DILI -VE (-4)” value is recorded as “-VE” and the DILI severity category result is “Ambiguous DILI-concern”.

On to B7, for which the “DILI +VE (5-8), DILI -VE (-4)” value was “-VE” and the DILI severity category entry is reported as “vNo-DILI-Concern”.

Take B8: the “DILI +VE (5-8), DILI -VE (-4)” value was “-VE” and the DILI severity category entry is “vNo-DILI-Concern”.

As to B9, the “DILI +VE (5-8), DILI -VE (-4)” value is on record as “-VE” and the DILI severity category entry is recorded as “vNo-DILI-Concern”.

Turning to B10, the “DILI +VE (5-8), DILI -VE (-4)” value is “-VE” and the DILI severity category entry is listed as “Ambiguous DILI-concern”.
